Experimental data reported in the MegaScale stability set (Tsuboyama et al. 2023).

B1: EEHEE_rd4_0469 (parent)
chain: ITIHVNGVTYHFDNPEEAEKFAQKMAKTYQLKMEIHNGEFHME
B2: HEEH_KT_rd6_3546 (parent)
chain: SEEDKEREHWERLNRDFELRVLDTTFIAHHAEEVIKLLRWLEK

Variants of: B1
Assay: folding stability dG (cDNA display proteolysis); higher = more stable
Details: PBS, room temperature

Folding stability dG [kcal/mol], by site and new letter:
H11: A 1.02, P 0.279, N 0.977, G 0.636, E 0.843, K 1.12, D 0.692, L 1.02, F 1.17, M 1.03, Q 1.01, I 1.04, R 1.13
G7: E 0.803, F 1.65, H 1.13, Y 1.26, N 1.07, V 1.83, L 1.33, P -0.022, M 1.22, S 1.07, T 0.96, Q 0.959, A 0.95, D 0.859, K 1, I 2.4, W 1.43, R 1.04
V5: S 0.42, R 0.306, E 0.203, L 0.899, F 1.24, Q 0.252, W 1.2, C 1.77, M 0.927, G 0.398, Y 0.92, N 0.312, D 0.38, T 0.534, P -0.199, I 1.14, K 0.112, H 0.711, A 0.938
T9: C 1.86, P 1.51, E 0.827, Y 0.832, S 1.17, L 1.15, M 1.21, Q 1.27, N 0.826, H 1.11, D 0.639, F 0.925, I 1.19, R 1.4, V 1.25, A 1.39, W 0.84, K 1.51, G 1.11
T2: R 1.46, P 0.663, E 0.797, Y 1.36, D 1.13, N 1.17, I 1.24, K 1.31, V 1.13, A 0.989, C 1.72, Q 0.972, H 1.51, G 0.665, L 1.25, S 1.08, M 1.01, F 1.42, W 1.47
Y10: I 0.806, A 0.111, N -0.261, R 0.338, E -0.243, H 0.792, T 0.067, W 1.07, L 0.756, S -0.597, V 0.557, Q -0.14, C 1.52, M 0.573, K 0.307, F 1.19
I1: P 0.64, D 0.302, A 0.749, C 1.65, G 0.443, Q 0.734, V 1.02, M 0.992, E 0.225, H 0.725, L 0.959, F 1.08, Y 1.16, S 0.683, K 0.846, T 0.826, R 1.01, N 0.57, W 1.32
I3: H 0.159, S -0.094, D 0.068, L 0.868, T 0.127, C 1.55, F 0.925, N -0.377, E -0.263, W 0.819, Y 0.837, P -0.854, V 1.35, M 0.706, K 0.19, A 0.525, Q -0.059, G 0.58, R 0.201
H4: E 0.692, K 0.918, T 0.943, Q 0.774, I 0.994, F 1.08, R 1.08, N 0.813, M 0.82, G 0.633, C 1.77, S 0.684, V 0.899, Y 1.29, L 0.939, A 0.76, W 1.35, D 0.586, P 0.265
N6: L 1.79, W 1.88, Y 1.73, V 1.42, R 1.27, E 1.2, M 1.73, K 1.37, A 1.3, G 1.14, P 0.4, I 1.51, Q 1.26, F 2.18, H 1.35, D 1.11, S 1.07, T 1
V8: F 1.36, I 1.13, E 1.09, D 1.01, S 1.09, W 1.47, N 1.12, M 1.18, Y 1.29, L 1.19, K 1.38, T 1.12, R 1.43, G 0.858, A 1.11, Q 1.06, H 1.11

Variants of: B2
Assay: as above
Details: PBS, room temperature

Folding stability dG [kcal/mol]: each site, then its substitutions
E42: L 2.42, R 1.85, Y 2.57, F 2.75, H 1.63, Q 1.67, I 2.41, M 2.4, P 0.291, K 1.69, N 1.56, D 1.07, T 2.1, V 2.26, G 1.7, W 2.59, A 1.82, S 1.84
R39: F 1.7, I 1.77, G 0.742, K 1.28, E 0.969, H 1.17, A 0.866, S 1.01, Y 1.54, Q 0.982, P 0.359, L 1.59, N 0.829, D 0.762, W 1.55, V 1.33, T 1.37, M 1.21
L41: F 1.38, D -0.253, W 1.22, T 0.442, N -0.295, G 0.088, P 0.119, Y 0.761, M 1.22, R 0.586, V 1.21, I 1.14, E -0.48, C 1.83, Q 0.519, H 0.356, K 0.491, A 0.58, S -0.005
L38: S 0.079, E -0.1, N 0.045, W 1.61, A 0.316, C 1.78, D -0.361, Y 0.971, R 0.8, T 0.188, V 0.9, F 1.39, I 1.09, M 0.931, G -0.072, K 0.405, P -0.432, H 0.371, Q 0.257
K43: Q 1.36, C 1.57, E 1.3, N 1.3, G 1.82, R 1.65, H 1.17, L 1.36, F 1.57, A 1.27, V 1.56, D 1.45, P 0.967, M 1.5, T 1.22, W 2.03, S 1.2, I 1.38, Y 1.8
W40: N 0.617, C 1.55, G 0.388, Y 1.13, L 1.01, F 1.1, A 0.156, R 0.934, H 0.768, P -0.109, K 0.6, V 0.885, M 1.11, I 1.31, Q 0.781, S 0.639, E 0.585, T 0.373, D 0.502
L37: K 0.138, S 0.285, T 0.61, W 1.63, N 0.031, D -0.437, M 1.09, G 0.136, A 0.846, Q 0.133, V 0.922, F 1.62, E -0.07, P -0.172, R 0.273, Y 1.23, I 1.23, H 0.36
K36: T 1.28, V 1.87, Y 1.82, P 0.419, S 1.23, W 1.87, R 1.51, Q 1.23
